Laboratory results published in the domain aggregation screens of Martell et al. (2025).

Assay: soluble fraction after stress (log2 fold change); higher = more stays soluble; pooled small domains, quantitative proteomics
Settings: stress: 50 degC
Procedure, shortened: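 The stress applied to every library was 50°C. These custom libraries of small protein domains were pooled and measured at high throughput with quantitative proteomics as the read-out. Aggregation propensity is expressed as the base-two logarithm of the fold change in how much of each protein remains soluble. The higher the value, the more of that protein stays in solution.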

Row | Sequence | soluble fraction (log2)
1 | HMGSALLEAGADDAGQRLDQWLAAKLGPSISRSRVQALIKQGAVLVGGKPAGEAKRKLVAGDVVSVALPEP | 0.0853
2 | HMIAGHLQEKKGFFYIVLSYPDAAGKRKTKWFPTKLSVKGNKKKAEVMLMDARKTFVPPETPL | -0.501
3 | HMAPAYELTEEETKIIEILKANENIDLNELKSQAALSGKKWDKSMKNLAKYNLTKVTVDGDAKTVAYLA | 0.0932
4 | HMNEIDDYDIQLLEYLSKGVSQEAMESVFKQAGITPNSKSTIEKRISKLKIYFKALNTTHLVSITKDLGL | -0.642
5 | HMADRVFGHIPGVAVGSIFPDRRSLSQTGVHRPTQAGISGNKTDGADSIVVSGGYRDDRDYGDLIIYTG | -0.000463
6 | HMQEPVHFTRRERQVLSLILSGQATAEIAKTLGIANATVTTYKKSLYSKSGTNSLSRLLIWAMVRR | -0.27
7 | HMRININNASARQIADALPGVGLKTARDIKDFQTTLSGERYTRLDQLHSIKRVDWDEIFKADLVRV | -0.0293
8 | HMEIKDQADAYGKMEPASAAAILSEMTNDLTLVAKILDSMQTSKSALILQNMKPTTAAQVTTKMTAMK | 0.0219
9 | HMRLEEVSVPQRLLAAIAEEREVQIGIVDGRGGTRVLRVEPLALEGGRLRARDVESGEEFTVLIHRVLL | -0.274
10 | HMGRELSDLELSLLRILDDKIPLLIDEAADRLQLPVAQVLSAVTIMEIDGLIRREGMRKYLRTVEVEETK | -0.499
11 | HMKYGPSTVATLKVARLGEMGAFLDAETGDTSDDILLHKTQQTAPVKVGDEVEVFLYLDPKRRLTASMRV | -0.107
12 | HMSDIDHIAGRRIRQARLNAGMTLETLASQAGISKALLSKIENSKVSSPLATFSKISKVLGVPLSDLLKE | -0.056
13 | HMPAPKPSGALSLKDEPLYAASDSKRRSGTVSGTYYRWDGENVNGRMRITNKQENIGKAGQVTGWITAH | 0.087
14 | HMKGVENLSDIDIQKALNNARANLSKNKAKLEQAGDDEKKKASALAMIQKWETTKKAIEEEIEARKKKSLN | -0.296
15 | HMVNLLVTPLEELEINFRTLRALRKYNIYQLEDLLRFIKYNGFDALRIVPGMGIKSTEQLYEKLKDKNI | -0.236
16 | HMEWLENIKKLKKEKGLTNESLSEKSGISVGTLNKLLSGATTDPKLSTLRPLADALEVSLDELLAI | 0.166
17 | HMTSTSVKYVNSSSGLNVRKGPSTSYDKVTTLVNGTKVTVISTNNGWSKITSGSITGYVSSQYLSSSS | -0.147
18 | HMTVSADIIQKIIKTSTTDENIITIDSISNSISKLALSKITAEDIIEILEASSLVLRNSNGSWTVL | -0.617
19 | HMTYAQQIGARIAFLRRLKGLTLAELAERVNKHKSTISKYESGQIIIDIESLKEVADALGVDVAQIVE | -0.0214
20 | HMINEEELLKIENIKRKYPDSKAALMPVLYFFQEKYGFISDDSIKEISQLLNISEVDIKGVVSFYEMFHEK | -0.59
21 | HMGSPKLVIKNGQVDYQVLKKEKLDLLELTSLLRGQNTFSIREIEYAIIEPNGVITVIKKPEYQSVVKGDL | -0.239
22 | HMSNGYVTAKTTVNVRKSASESGERLGVIYQGDKLELVMNQADGWTKVKYKGQTAYVKSEFM | -0.6
23 | HMDNAILQELYDYYKEDPSLSQSELIISMLTRIQEAVGYVSKDVQEEVARLAGVNRGYVAAIIKNLPHL | -0.747
24 | HMEESTYQWNNFVRDFYASRVSAQYTNKLKVAAILWHHVKNTPQSKIYHDNLVSKYAEEINYFK | -2.51
25 | HMSLTEEQVDSGLKEIRLALLEADVALPVVKNFITNIKPKAIGQEIIRSTSPGQMIVKIVYDELVSIL | -0.0891

Row | Sequence | soluble fraction (log2)
26 | HMAKMPSIIIMKDGVIRTSELEQIERDENWLNEEMKKQHIDNPEDVFLAEFWDGKVNFILQDGKIK | 0.0716
27 | HMDELPKDILRSFGLPDKPWAMELLRNLRRDGFALDGETARAYAEMAAMKPPRTDARQWMTAADVAYRRG | -0.151
28 | HMFTGELESRVFELNYVDGLVASAALAGVLTDKGSATPIASRAGGENDMLLVVDRIASYSQIEKIITQLD | -0.0977
29 | HMNVQGFVFDLAEPLDKVPSIEGFPLKLEDPLTLVAAVNKDRSINALFAELSKLNIKIKSMRNE | 0.15
30 | HMNTAALSLQRRNEIKKWLLEEKTLTVAALSNRFNVTYETIRRDLEILEKEGFLKKVYGGAALNERV | -0.0358
31 | HMDDPEISQEQRQQLFRTAKEHFGASGNDVLKEILADHGRDSTVKMPVSVFAEIMGDLLKRALD | 0.432
32 | HMETSVDEVYKKIQAYIEAEDKHKPLSDQKLAEQLQSDGLKVSRRTVAKYREKLNIASSSKRKR | 0.358
33 | HMNFTEAEQRFHFLEDQRQRGVLSLEQYRAELAQLRVTDAWGRLWMLQEQTGQWFVFHEGQWRPSQ | -0.124
34 | HMQISDEGELSGIVRKIIDANPQSVADYKAGKKKAIGFLVGQIMIETKGRANPASVNELLIKKLE | -0.0642
35 | HMQNVKIKAEVKGEVISPGVYELDEESRIQDLIDASGGFSDKAYYDNINLSMKLKDEMVLVVYDKDKI | -0.163
36 | HMAMDYTVVHSDRRTIAIQIQRDGRVVVRAPYAATAEDIRRVVDSHRDWVEKTVRRQQEQLAAS | -0.0261
37 | HMKQVNVVSVIGQSEANAKTTLTGLGLKVNVAYEEDTSKADGIVLKQSLEGGKTVNEGTTITITVNKIA | -0.0302
38 | HMDIASNQIQGIKDSVGGDENYSKMVAWALESLPAEEVKAFNDLTETANAPAIKMAVQGLYSQYNNAM | 0.264
39 | HMSEGEMSQWIIAQAKQQGGGFQPDAARLLGSYVGNNTLRARQEIDKLLTYVGPSRVVTPEDVVLLTA | -0.0143
40 | HMHRIKRRNDTLVSALDSIAGIGAKRKKALLQHFGSVRAIKAVSAEEIAKVEGISPTLANQIFEAL | -0.605
41 | HMIDFDEIEILSSSKIEKIENSEYLKSSIFEKDSNQYIYRLSFENRDQLKNFKKEIEDIDQIKKIDVTY | 0.103
42 | HMATSNDTQITGSLALRFDGSGDTFTVNVNGDDKLEINTEGTVIYKPLTTAPTYVSGGLFFSSSGDFYVG | -0.0386
43 | HMKKYLTETEAAAYLNMPVEEIKAAITKGEIEQYVKTSSGYTISVEELDKFFGQKAYDTMTSNNS | 0.174
44 | HMSDKPIFIDTAGIAALSAIGFSKYQATIIFNYIKKGGAIYTVKDLAKIYSIDQKTIDLTQSKIIFS | -0.0111
45 | HMRMSLDEAKAVVLPIGEYKGRNMGEVLAIKPELIDFYASQKFNSSKYPYLKEAAQVILENQ | -0.0538
46 | HMVAESGLPPAFRSTWRHIMQTRGAQLDVLAMRTGTDAASLQKQLHAMELGGWVRRMPGGWYVPLK | -0.736
47 | HMFDFLELGQAIQDAREKQRITREELAEELGISARHLQSVEKEGQYPSFRLFIQLVTMFHISVDQYI | -0.0829
48 | HMSADLVYLRKRLQDAIAQLPENMRTAYTLFQIANRSIREISELTGASESLVKVRIHRAKGKLQKQLEDLK | -1.33
49 | HMGKQPLYEQLVDLLRDRIENDMETGELLPSERKLAHHFGLSRTTVRLAMDRLETLGLITRVHGKDTFVAE | -1.17
50 | HMKPTVKGHFTRKESNVGGYADVRGWGVAGTPSMMANQSKDTRRFSTLIVPGRSVNVHPSPTKEAIIWWQS | -0.0091

Row | Sequence | soluble fraction (log2)
51 | HMEEIIPIRFLRHRVKRRETIFGLTQKYNITEDQLKRYNTRLYSEALERKMVLQIPVFPEVDED | -2.31
52 | HMVLELRIGQIVRGVLLQLVGEREGIVSVGGVPVRARLEAEIPLGRGVMLQVQPGSDANNILLKPV | -0.515
53 | HMRAVEGKRLKRLLRTNLIAIERDQILQYPLRKRPLAIVTRAVRATNPDAVIVNDAGDDVFARALDVLLAS | -1.34
54 | HMGVVEEVAADFEGRAVVGKVDVDEQTELARRFGIMSIPTLVVMKGGKVVEQAVGARGKADIAAMLERH | 0.0848
55 | HMVEPDELTEREREVLQFVARGLSNKEIGAALALSPHTIKAHLRSILDKLHLRSRAEAAAWAVRSGLS | -0.143
56 | HMGEPQAWNELIGNLLRQWEARQTGWTPARKREALDRVLGAADPAALYTRLQGLLKSWTQAMTDADA | -1.7
57 | HMASPEIAFLNKFYQLSNTVNEISVMKIVKNYQEKYQQRISIEQMAKTLKTMGYAVRNNIISNIEEAPV | -1.3
58 | HMVQDDLRELEGISTELLAKLADAGITNRDDLADLAIDELVAITGQSEDDAKALIMKAREHWFAGDA | -0.0273
59 | HMLNDTGAIRAAVEEVLAANEKSVNEYKGGKTQAFQYLIGQSMRALRGKAPAQEVTKLLKELLG | -0.263
60 | HMGQVEVPDVVGMTQERAITTLTEAKLVAQIQLTPADVAKGLVAAQSPRAGLKIGEGSFVTIEVSTGPVI | 0.0948
61 | HMNHHTEQQLKALSNKVKDHRMRMRLLAVAHFKAGKNKADVARTLNVSRRMVNEWVANYFKGGVSALES | -3.6
62 | HMGELDFYEEMRDDYLTGKIWNVGEIVEAKGMIGEIVRKGTNYISFVTDDNKVHKAWLHEIKL | -0.634
63 | HMGFDTVVEKVLGLITSRPMTSRDIQMTLGRSREHTSRLMNRLYKEGLVDRNTSSKPFSYIITEKGREKI | -0.0114
64 | HMFIQLSQEEKKVVEGLQQRSKTHLDALALEVGQNISKTAAMLMELEMKGVVRALPGKYYEL | -0.888
65 | HMRAGALTTLTERERNVFDLVVTGHSNPEIARQLSIADVTVKTHVGHILSKLGVRDRVHLVIWAHRQGLAD | -2.61
66 | HMAPASADQLIDQLNEKVKAKDDKGVAALLTAAQTKMAELAQKDPKEAQAYVAKLQQWMQSNSENIKAALK | 0.157
67 | HMGSLVQTAMQAVTKHIHDNAMRVGDTLPGEGHFAETLGVSRAVMREAFGALAALKLIDVGNGRKPRVGR | -0.819
68 | HMISINVIGEMISGSYGNTPFSRTYEKDIYEQMVKLSDDADQAQTVEEYNKILAEFSLLTTEDLK | -0.698
69 | HMSGLVPAIGTKGEEGYIRESDIPGSNVKNPEEALAYMEWLKTQPSELLIPLYDEQGNVIGQFAVS | 0.07
70 | HMSHGYVEMQAKDDQVLLAALKNHPWFEKVSIDEETGLTKAILTQPIEAEELNSMLFEKGIVLSHLVKRK | 0.234
71 | HMWPDDAIALPTRDGQDVGGAQERTMLAFASGAAGIRTVEEINPDGSITRLRTRYGWPTFETEGARTAAAE | -0.109
72 | HMQILLASHAELAKGILSAVELIAGTQQNLKAYSAYTEAVDVHFKDQMLQDLNKMDPEDEVIL | 0.0294
73 | HMDTRQFWEQWVADEIRTFEHKDRKQLFGWFEGNKPKLGQMKKLGYGDLLTKVQTSWDEIYQQKE | 0.124
74 | HMTFKDIMENYTISRIENTINSAVVFLDEINAYITIDKTQLPSNLRYDTDSKIMASQIPDDAKIKYFMIYW | -1.99
75 | HMGKEDISQINKLYQNQILDYETYIDTLNSFNIDTKSKDFKNLLDLFIKKSISFETFNKGIINIHNKS | 0.11
